From the supplement of paper PMC5998384 come the findings set out here.

Data set [1] concerns HeLa Kyoto. Briefly: solubility in G1/S (NP-40 vs SDS abundance) (log2 ratio); higher = more soluble. Conditions: cell cycle stage: G1/S.
Data set [2] relates to HeLa Kyoto. Briefly: melting temperature (median over replicates), in situ; higher = more thermally stable.
The subject of data set [3] is HeLa Kyoto. Briefly: solubility change mitosis vs G1/S (difference of NP-40 vs SDS log2 ratios) (log2 ratio difference); higher = more soluble in mitosis.
In data set [4] the test system is HeLa Kyoto. Briefly: thermal stability score vs G1/S (z-score of summed log2 fold changes over temperatures); higher = more thermally stable than in G1/S.
Setting [5] is: cell cycle stage: early G1 (4.5 h after nocodazole release).
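For melting temperature (median over replicates), in situ in this document: HeLa Kyoto cells synchronized by double thymidine or nocodazole block, proteins quantified by TMT10plex mass spectrometry, three independent biological replicates.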
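For solubility change mitosis vs G1/S (difference of NP-40 vs SDS log2 ratios) in this document: synchronized HeLa Kyoto cells (double thymidine block for G1/S, nocodazole release for mitosis), protein amounts in NP-40 versus SDS lysates quantified by mass spectrometry, three biological replicates.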
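For solubility in G1/S (NP-40 vs SDS abundance) in this document: HeLa Kyoto cells arrested at G1/S by double thymidine block, proteins quantified by TMT10plex mass spectrometry in mild NP-40 versus SDS extracts, three biological replicates.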
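For thermal stability score vs G1/S (z-score of summed log2 fold changes over temperatures) in this document: synchronized HeLa Kyoto cells, proteins quantified by TMT10plex mass spectrometry, three biological replicates, mitosis taken 0.5 h after nocodazole release, G1/S directly after double thymidine block.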

“MAGIIKKQILKHLSRFTKNLSPDKINLSTLKGEGQLTNLELDEEVLQNVLELPTWLAITRVYCNRASIRIQWTKLKTHPICLCLDKVEVEMKTCEDPRPPNGQSPIALASGQSEYGFAEKVVEGMFIIVNSITIKIHSKAFHASFELWQLQGYSVNPNWQQSDLRLTRITDPCRGEVLTFKEITWQTLRIEADATDNGDQDPVTTPLRLITNQGRIQIALKRRTKDCNVISSKLMFLLDDLLWVLTDSQLKAMMKYAESLSEAMEKSAHQRKSLAPEPVQITPPAPSAQQSWAQAFGGSQGNSNSSSSRLSQYFEKFDVKESSYHLLISRLDLHICDDSQSREPGVSANRLMGGAMQLTFRKMAFDYYPFHWAGDSCKHWVRHCEAMETRGQWAQKLVMEFQSKMEKWHEETGLKPPWHLGVDSLFRRKADSLSSPRKNPLERSPSQGRQPAFQPPAWNRLRSSCMVVRVDDLDIHQVSTAGQPSKKPSTLLSCSRKLHNLPTQVSAIHIEFTEYYFPDNQELPVPCPNLYIQLNGLTFTMDPVSLLWGNLFCLDLYRSLEQFKAIYKLEDSSQKDEHLDIRLDAFWLKVSFPLEKRERAELHRPQALVFSASGMIATNTRHAPHCSCSDLQSLFRGFAAAEFFHSNYDHFPKVPGGFSLLHMLFLHHAFQMDSCLPQPNTLPPQRPKASWDLWSVHFTQISLDFEGTENFKGHTLNFVAPFPLSIWACLPLRWQQAQARKLLLASEGRLKPSASFGSPVQSEALAPDSMSHPRSKTEHDLKSLSGLTEVMEILKEGSSGMDNKGPLTELEDVADVHMLVHSPAHVRVRLDHYQYLALLRLKEVLQRLQEQLTKDTESMTGSPLQNQTACIGVLFPSAEVALLMHPAPGAVDADSAGSDSTSLVDSELSPSEDRELKSDASSDQGPASPEKVLEESSIENQDVSQERPHSNGELQDSGPLAQQLAGKGHEAVESLQAKKLSRTQASSSPAALKPPAGRETAVNGQGELIPLKNIEGELSSAIHMTKDATKEALHATMDLTKEAVSLTKDAFSLGRDRMTSTMHKMLSLPPAKEPMAKTDEGVAAPVSGGAARLRFFSMKRTVSQQSFDGVSLDSSGPEDRISVDSDGSDSFVMLLESESGPESVPPGSLSNVSDNAGVQGSPLVNNYGQGSPAANSSVSPSGEDLIFHPVSVLVLKVNEVSFGIEVRGEDLTVALQAEELTLQQLGTVGLWQFLHGQCPGTCFQESSTLKTGHIRPAVGLRFEVGPGAAVHSPLASQNGFLHLLLHGCDLELLTSVLSGLGPFLEDEEIPVVVPMQIELLNSSITLKDDIPPIYPTSPGPIPITLAMEHVVLKRSDDGVFHIGAAAQDKPSAEVLKSEKRQPPKEQVFLVPTGEVFEQQVKELPILQKELIETKQALANANQDKEKLLQEIRKYNPFFEL [UHRF1BP1]”: the “solubility in G1/S (log2)” value in the data set on HeLa Kyoto [1] is -0.0773. The melting temperature in the data set with HeLa Kyoto [2] (cell cycle stage: G1/S) came out at 54.1 °C; with HeLa Kyoto [2] (cell cycle stage: mitosis), 53.5 °C. Besides, the “solubility change mitosis (log2)” value in the data set on HeLa Kyoto [3] is -0.154. Besides, the values for the thermal stability score with HeLa Kyoto [4] (setting [5]) and with HeLa Kyoto [4] (cell cycle stage: mitosis) were -1.63 and -1.87, respectively.

Turning to “MAGKAHRLSAEERDQLLPNLRAVGWNELEGRDAIFKQFHFKDFNRAFGFMTRVALQAEKLDHHPEWFNVYNKVHITLSTHECAGLSERDINLASFIEQVAVSMT [PCBD1]”, the “solubility in G1/S (log2)” value in the data set on HeLa Kyoto [1] was 0.0398. Moreover, the melting temperature in the data set with HeLa Kyoto [2] (cell cycle stage: G1/S) was found to be 54.6 °C; in the data set with HeLa Kyoto [2] (cell cycle stage: mitosis) it was 55.6 °C. Further, the “solubility change mitosis (log2)” value with HeLa Kyoto [3] is 0.0567. For the same sequence, the thermal stability score is 1.22 with HeLa Kyoto [4] (setting [5]) and -0.726 with HeLa Kyoto [4] (cell cycle stage: mitosis).

As for “MAGKKNVLSSLAVYAEDSEPESDGEAGIEAVGSAAEEKGGLVSDAYGEDDFSRLGGDEDGYEEEEDENSRQSEDDDSETEKPEADDPKDNTEAEKRDPQELVASFSERVRNMSPDEIKIPPEPPGRCSNHLQDKIQKLYERKIKEGMDMNYIIQRKKEFRNPSIYEKLIQFCAIDELGTNYPKDMFDPHGWSEDSYYEALAKAQKIEMDKLEKAKKERTKIEFVTGTKKGTTTNATSTTTTTASTAVADAQKRKSKWDSAIPVTTIAQPTILTTTATLPAVVTVTTSASGSKTTVISAVGTIVKKAKQ [SAP30BP]”, in the data set on HeLa Kyoto [1], the “solubility in G1/S (log2)” value was 0.144. The melting temperature with HeLa Kyoto [2] (cell cycle stage: G1/S) was 52.6 °C; in the data set on HeLa Kyoto [2] (cell cycle stage: mitosis) it was 53.6 °C. In addition, the “solubility change mitosis (log2)” value in the data set with HeLa Kyoto [3] is -0.0287. In addition, the values for the thermal stability score in the data set with HeLa Kyoto [4] (setting [5]) and in the data set on HeLa Kyoto [4] (cell cycle stage: mitosis) were 0.846 and 1.18, respectively.

On to “MAGPGPGAVLESPRQLLGRVRFLAEAARSLRAGRPLPAALAFVPREVLYKLYKDPAGPSRVLLPVWEAEGLGLRVGAAGPAPGTGSGPLRAARDSIELRRGACVRTTGEELCNGHGLWVKLTKEQLAEHLGDCGLQEGWLLVCRPAEGGARLVPIDTPNHLQRQQQLFGVDYRPVLRWEQVVDLTYSHRLGSRPQPAEAYAEAVQRLLYVPPTWTYECDEDLIHFLYDHLGKEDENLGSVKQYVESIDVSSYTEEFNVSCLTDSNADTYWESDGSQCQHWVRLTMKKGTIVKKLLLTVDTTDDNFMPKRVVVYGGEGDNLKKLSDVSIDETLIGDVCVLEDMTVHLPIIEIRIVECRDDGIDVRLRGVKIKSSRQRELGLNADLFQPTSLVRYPRLEGTDPEVLYRRAVLLQRFIKILDSVLHHLVPAWDHTLGTFSEIKQVKQFLLLSRQRPGLVAQCLRDSESSKPSFMPRLYINRRLAMEHRACPSRDPACKNAVFTQVYEGLKPSDKYEKPLDYRWPMRYDQWWECKFIAEGIIDQGGGFRDSLADMSEELCPSSADTPVPLPFFVRTANQGNGTGEARDMYVPNPSCRDFAKYEWIGQLMGAALRGKEFLVLALPGFVWKQLSGEEVSWSKDFPAVDSVLVKLLEVMEGMDKETFEFKFGKELTFTTVLSDQQVVELIPGGAGIVVGYGDRSRFIQLVQKARLEESKEQVAAMQAGLLKVVPQAVLDLLTWQELEKKVCGDPEVTVDALRKLTRFEDFEPSDSRVQYFWEALNNFTNEDRSRFLRFVTGRSRLPARIYIYPDKLGYETTDALPESSTCSSTLFLPHYASAKVCEEKLRYAAYNCVAIDTDMSPWEE [HECTD3]”, for which the “solubility in G1/S (log2)” value in the data set with HeLa Kyoto [1] is -0.0837. Also, the melting temperature is 51.8 °C in the data set on HeLa Kyoto [2] (cell cycle stage: G1/S) and 51 °C with HeLa Kyoto [2] (cell cycle stage: mitosis). The “solubility change mitosis (log2)” value in the data set on HeLa Kyoto [3] is -0.123. In addition, the thermal stability score with HeLa Kyoto [4] (setting [5]) was 0.000139; with HeLa Kyoto [4] (cell cycle stage: mitosis) it was -0.669.

As to “MAGPGWGPPRLDGFILTERLGSGTYATVYKAYAKKDTREVVAIKCVAKKSLNKASVENLLTEIEILKGIRHPHIVQLKDFQWDSDNIYLIMEFCAGGDLSRFIHTRRILPEKVARVFMQQLASALQFLHERNISHLDLKPQNILLSSLEKPHLKLADFGFAQHMSPWDEKHVLRGSPLYMAPEMVCQRQYDARVDLWSMGVILYEALFGQPPFASRSFSELEEKIRSNRVIELPLRPLLSRDCRDLLQRLLERDPSRRISFQDFFAHPWVDLEHMPSGESLGRATALVVQAVKKDQEGDSAAALSLYCKALDFFVPALHYEVDAQRKEAIKAKVGQYVSRAEELKAIVSSSNQALLRQGTSARDLLREMARDKPRLLAALEVASAAMAKEEAAGGEQDALDLYQHSLGELLLLLAAEPPGRRRELLHTEVQNLMARAEYLKEQVKMRESRWEADTLDKEGLSESVRSSCTLQ [ULK3]”, the “solubility in G1/S (log2)” value with HeLa Kyoto [1] was 0.0298. Besides, the melting temperature was determined as 49.9 °C in the data set on HeLa Kyoto [2] (cell cycle stage: G1/S) and 49.6 °C in the data set with HeLa Kyoto [2] (cell cycle stage: mitosis). For the same sequence, in the data set with HeLa Kyoto [3], the “solubility change mitosis (log2)” value is -0.125. For the same sequence, the figures for the thermal stability score in the data set on HeLa Kyoto [4] (setting [5]) and in the data set on HeLa Kyoto [4] (cell cycle stage: mitosis) were -0.375 and -0.212, respectively.
